From PMC7340257, “Crystal structure and interaction studies of human DHTKD1 provide insight into a mitochondrial megacomplex in lysine catabolism” (IUCrJ, 2020) come the findings set out here.

This data set deals with the molecule itself. Briefly: SEC; analytical gel filtration of hDHTKD1_(45–919) WT and p.R715C alone; 20 mM HEPES pH 7.5, 150 mM NaCl, 0.5 mM TCEP. A general note: Size exclusion chromatography separates by hydrodynamic size, large species first.

B1: human DHTKD1 residues 45-919, p.R715C variant, His-tagged (enzyme, UniProt Q96HY7 45-919, looked up)
chain: GALERPPVDHGLARLVTVYCEHGHKAAKINPLFTGQALLENVPEIQALVQTLQGPFHTAGLLNMGKEEASLEEVLVYLNQIYCGQISIETSQLQSQDEKDWFAKRFEELQKETFTTEERKHLSKLMLESQEFDHFLATKFSTVKRYGGEGAESMMGFFHELLKMSAYSGITDVIIGMPHRGRLNLLTGLLQFPPELMFRKMRGLSEFPENFSATGDVLSHLTSSVDLYFGAHHPLHVTMLPNPSHLEAVNPVAVGKTRGRQQSRQDGDYSPDNSAQPGDRVICLQVHGDASFCGQGIVPETFTLSNLPHFRIGGSVHLIVNNQLGYTTPAERGRSSLYCSDIGKLVGCAIIHVNGDSPEEVVRATRLAFEYQRQFRKDVIIDLLCYRQWGHNELDEPFYTNPIMYKIIRARKSIPDTYAEHLIAGGLMTQEEVSEIKSSYYAKLNDHLNNMAHYRPPALNLQAHWQGLAQPEAQITTWSTGVPLDLLRFVGMKSVEVPRELQMHSHLLKTHVQSRMEKMMDGIKLDWATAEALALGSLLAQGFNVRLSGQDVGRGTFSQRHAIVVCQETDDTYIPLNHMDPNQKGFLEVSNSPLSEEAVLGFEYGMSIESPKLLPLWEAQFGDFFNGAQIIFDTFISGGEAKWLLQSGIVILLPHGYDGAGPDHSSCRIECFLQMCDSAEEGVDGDTVNMFVVHPTTPAQYFHLLRRQMVRNFRKPLIVASPKMLLRLPAAVSTLQEMAPGTTFNPVIGDSSVDPKKVKTLVFCSGKHFYSLVKQRESLGAKKHDFAIIRVEELCPFPLDSLQQEMSKYKHVKDHIWSQEEPQNMGPWSFVSPRFEKQLACKLRLVGRPPLPVPAVGIGTVHLHQHEDILAKTFA
notes: PDB 6sy1 is the wild-type parent of the same limits; source: E. coli BL21(DE3)R3-Rosetta, purified
As for B1, the binding result is listed as “binds”.
